Publication PMC5381515 (Structure (London, England : 1993), 2017)

Key:
[1] = molecular target: truncated human βB2-crystallin (14–194) (human); assay: SEC-MALS
SEC-MALS = molecular target: the molecule itself; assay: SEC-MALS

stoichiometry N [1]	Molecule	stoichiometry N (SEC-MALS)
2	truncated human βB2-crystallin (14–194) (domain or fragment)	–
–	full-length human βB2-crystallin (natural protein, UniProt P43320 1-205, looked up) MASDHQTQAGKPQSLNPKIIIFEQENFQGHSHELNGPCPNLKETGVEKAGSVLVQAGPWVGYEQANCKGEQFVFEKGEYPRWDSWTSSRRTDSLSSLRPIKVDSQEHKIILYENPNFTGKKMEIIDDDVPSFHAHGYQEKVSSVRVQSGTWVGYQYPGYRGLQYLLEKGDYKDSSDFGAPHPQVQSVRRIRDMQWHQRGAFHPSN	2
